These results are taken from patent US5866680.

Read-outs that look alike come from different tables or passages of the source.

For data set [1], the target named is U2 snRNP-B" 1-109 (Homo sapiens) (UniProt P08579). Briefly: EMSA. (In EMSA bound probe runs differently from free probe, usually more slowly.)
Data set [2] has as its target U1 snRNP-A 1-142 (Homo sapiens) (UniProt P09012). The data set can be described thus: EMSA.
The target in data set [3] is A/B".1A pentamer mutant 1-142 L44V,V45A,S46L,R47K,S48T (Homo sapiens) (UniProt P09012). The data set can be described thus: EMSA.
Data set [4] relates to U2 snRNP-B" + U2 snRNP-A' (Homo sapiens). The data set can be described thus: pulldown. The conditions noted are these: A' stimulates B" binding to U2 about 100-fold.
Setting [5] is: legend says full-length U2, text says U2 stem-loop IV.

UniProt P08579, sequence (P08579 1-109): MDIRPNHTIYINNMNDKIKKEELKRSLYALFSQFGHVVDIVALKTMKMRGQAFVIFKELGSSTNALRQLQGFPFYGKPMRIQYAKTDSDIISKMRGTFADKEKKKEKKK

As a reminder, the Kd is the constant that tells how readily two partners part at equilibrium. In the case of U1SL2 (U1 stem-loop II), the Kd in data set [1] was 800 nM; in data set [2] (earlier estimate 80 nM quoted, 10 mM MgCl2, 150 mM NaCl) it was 30 nM; in data set [3], 70 nM.

Take human U2 RNA: in data set [4], the binding signal amounted to 100 fold. For the same substance, the Kd is 400 nM in data set [1] (setting [5]), > 10000 nM in data set [2] (setting [5]) and 900 nM in data set [3] (setting [5]).
